Source: US20190330347A1 (TAIZHOU HANZHONG BIOPHARMACEUTICS, published 2019)

What was measured:
PD-1-his antigen [1] = target: T1, PD-1-his antigen (UniProt Q15116 25-167, limits assumed); test: ELISA on coated PD-1-his
T1 construct: Human is implied, since cynomolgus and rat PD1 are called non-human antigens
Description: (§1) An ELISA plate was coated with PD-1-his antigen in a concentration of 0.25 μg/ml (100 μl per well) by incubation at 4° C. overnight.
(§2) The ELISA plate coated with the PD-1-his antigen was blocked with 1% BSA in the PBS buffer at 37° C. for 2 hours and washed with 1 xPBST buffer containing 1% Tween-20 for three times, with gently patting to dryness.
(§3) The absorbance of solution in each well was measured with the microplate reader at a wavelength of 450 nm.

[2] = target: T2, PD1-hFc of Cynomolgus monkey (Macaca fascicularis) (Cynomolgus monkey (Macaca fascicularis), UniProt B0LAJ3 25-170); test: ELISA on coated cynomolgus PD1-hFc
T2 construct: also called PD1 of Cynomolgus monkey
T2 sequence (B0LAJ3 entry or part of it limits assumed, form in doubt): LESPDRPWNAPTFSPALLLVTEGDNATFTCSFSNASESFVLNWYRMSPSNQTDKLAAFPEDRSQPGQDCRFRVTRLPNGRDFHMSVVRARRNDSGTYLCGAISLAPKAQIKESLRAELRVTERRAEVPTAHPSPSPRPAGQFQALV

FcγRIIIa-Biotin = target: T3, FcγRIIIa-Biotin (UniProt P08637 17-208, limits assumed, biotin (site not stated)); test: Fortebio Octet BLI, FcγRIIIa-Biotin on SA sensor
T3 construct: also called CD16a
T3 sequence (P08637 17-208 limits assumed): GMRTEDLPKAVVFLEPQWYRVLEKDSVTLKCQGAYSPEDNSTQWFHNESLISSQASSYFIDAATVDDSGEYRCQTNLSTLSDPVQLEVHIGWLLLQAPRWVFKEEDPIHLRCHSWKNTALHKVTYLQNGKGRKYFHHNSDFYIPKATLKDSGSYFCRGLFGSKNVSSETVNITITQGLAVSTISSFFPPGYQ
Text: The data was collected with the Fortebio Data Acquisition 7.0 software and analyzed with the Fortebio Data Analysis 7.0 software.

[3] = target: T4, PD1 on the surface of cell membrane (293T cell line stably transfected with PD1) (UniProt Q15116 25-288, limits assumed); test: FACS on 293T cells stably transfected with PD1
T4 construct: whole, on cells
T4 sequence (Q15116 25-288 limits assumed): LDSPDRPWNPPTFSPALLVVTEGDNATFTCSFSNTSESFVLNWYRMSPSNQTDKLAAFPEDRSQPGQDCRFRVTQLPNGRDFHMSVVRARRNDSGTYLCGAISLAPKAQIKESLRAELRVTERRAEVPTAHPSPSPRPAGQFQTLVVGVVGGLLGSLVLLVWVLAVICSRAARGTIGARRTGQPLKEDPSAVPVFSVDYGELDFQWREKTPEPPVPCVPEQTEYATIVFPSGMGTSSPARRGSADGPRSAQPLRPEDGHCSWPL
Description: Step f) Each group was centrifuged at 4000 r/min at a low temperature for 5 minutes, followed by washing with the PBS buffer once and adding 200 μl PBS for suspending, thus obtaining a suspension for on-line detection.

serum complement C1q = serum complement C1q (UniProt P02745 23-245; P02746 28-253; P02747 29-245); test: Fortebio Octet BLI, H8L2 on FAB2G sensor, C1q in solution
Chain of serum complement C1q (P02745 23-245 limits assumed, chain 1 of 3): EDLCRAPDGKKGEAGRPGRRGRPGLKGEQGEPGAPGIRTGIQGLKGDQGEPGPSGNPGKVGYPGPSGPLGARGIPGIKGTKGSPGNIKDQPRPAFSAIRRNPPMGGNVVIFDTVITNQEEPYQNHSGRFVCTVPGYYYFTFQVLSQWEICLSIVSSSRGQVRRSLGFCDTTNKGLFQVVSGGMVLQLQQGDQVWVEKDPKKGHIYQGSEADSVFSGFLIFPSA
Chain of serum complement C1q (P02746 28-253 limits assumed, chain 2 of 3): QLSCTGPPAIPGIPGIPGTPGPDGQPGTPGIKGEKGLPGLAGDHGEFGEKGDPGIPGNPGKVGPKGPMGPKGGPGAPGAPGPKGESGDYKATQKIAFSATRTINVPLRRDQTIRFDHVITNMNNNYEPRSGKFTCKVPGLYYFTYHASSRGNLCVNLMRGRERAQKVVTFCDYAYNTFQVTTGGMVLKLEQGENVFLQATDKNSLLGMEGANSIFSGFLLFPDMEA
Chain of serum complement C1q (P02747 29-245 limits assumed, chain 3 of 3): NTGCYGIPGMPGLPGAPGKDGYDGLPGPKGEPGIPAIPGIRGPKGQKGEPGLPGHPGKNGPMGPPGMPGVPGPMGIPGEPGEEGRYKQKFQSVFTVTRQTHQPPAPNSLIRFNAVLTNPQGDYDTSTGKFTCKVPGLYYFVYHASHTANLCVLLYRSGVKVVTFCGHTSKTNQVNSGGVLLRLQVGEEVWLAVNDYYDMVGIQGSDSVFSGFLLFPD
Text: Serum complement C1q can bind to the Fc fragment of IgG antibody, thus involving in complement-dependent cytotoxicity (CDC). The safety and efficacy of a therapeutic monoclonal antibody will be affected by the binding ability of the monoclonal antibody to the serum complement C1q.
After binding for 120 seconds, the PBST buffer was applied to the FAB2G sensor for disassociation, which was kept for 180 seconds. The data was collected with the Fortebio Data Acquisition 7.0 software and analyzed with the Fortebio Data Analysis 7.0 software.

PD-1-hIgGFc antigen [4] = target: T5, PD-1-hIgGFc antigen (UniProt Q15116 25-167, limits assumed); test: competitive ELISA on coated PD-1-hIgGFc, competitor PDL2-his tag
T5 sequence (Q15116 25-167 limits assumed): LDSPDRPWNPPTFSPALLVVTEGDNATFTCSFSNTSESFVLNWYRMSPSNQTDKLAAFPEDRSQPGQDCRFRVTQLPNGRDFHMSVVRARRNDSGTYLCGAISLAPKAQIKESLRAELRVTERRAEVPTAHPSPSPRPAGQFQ
Description: A 96-well ELISA plate was coated with PD-1-hIgGFc antigen in a concentration of 1.0 μg/ml (100 μl per well) by incubation at 4° C. overnight.
After the 96-well ELISA plate was washed with the PBST buffer for five times and gently patted to dryness, HRP-conjugated monoclonal mouse anti-his tag as a secondary antibody in 1:750 dilution (50 μl per well) was added for incubation at 37° C. for 1 hour.

PD-1-hIgGFc antigen [5] = target: T5, PD-1-hIgGFc antigen; test: competitive ELISA on coated PD-1-hIgGFc, competitor PDL1-mIgG2aFc
Description: A 96-well ELISA plate was coated with PD-1-hIgGFc antigen in a concentration of 0.5 μg/ml (50 μl per well) by incubation at 4° C. overnight.

PD-1-his antigen [6] = target: T1, PD-1-his antigen; test: ELISA on coated PD-1-his; antibody at 1:3 dilution of 2 µg/ml
Description: as §1, §2, §3

[7] = target: T4, PD1 on the surface of cell membrane …; test: FACS competition on 293T-PD1 cells, competitor PDL1-mFc 20 nM

T1 sequence (Q15116 25-167 limits assumed): as above

EC50 (PD-1-his antigen [1]): 0.04 nM
EC50 [2]: 0.219 nM
binding result (FcγRIIIa-Biotin): no binding (tested: 4000 nM)
EC50 [3]: 3.4 nM
binding result (serum complement C1q): no binding (tested: 3.13 to 200 nM)
EC50 (PD-1-hIgGFc antigen [4]): 1.83 nM
EC50 (PD-1-hIgGFc antigen [5]): 0.474 nM
absorbance at 450 nm (PD-1-his antigen [6]): 1.76
EC50 [7]: 19.6 nM
B1: humanized H8L2 antibody (IgG-like antibody H8L2 against PD-1) (antibody)
heavy: EVQLVQSGGGLVQPGGSLKLSCAASGFTFSSYGMSWVRQAPGKGLDWVATISGGGRDTYYPDSVKGRFTISRDNSKNNLYLQMNSLRAEDTALYYCARQKGEAWFAYWGQGTLVTVSSASTKGPSVFPLAPCSRSTSESTAALGCLVKDYFPEPVTVSWNSGALTSGVHTFPAVLQSSGLYSLSSVVTVPSSSLGTKTYTCNVDHKPSNTKVDKRVESKYGPPCPPCPAPEFLGGPSVFLFPPKPKDTLMITRTPEVTCVVVDVSQEDPEVQFNWYVDGVEVHNAKTKPREEQFNSTYRVVSVLTPLHQDWLNGKEYKCKVSNKGLPSSIEKTISKAKGQPREPQVYTLPPSQEEMTKNQVSLTCLVKGFYPSDIAVEWESNGQPENNYKTTPPVLDSDGSFFLYSRLTVDKSRWQEGNVFSCSVMHEALHAHYTQKSLSLSLGK
light: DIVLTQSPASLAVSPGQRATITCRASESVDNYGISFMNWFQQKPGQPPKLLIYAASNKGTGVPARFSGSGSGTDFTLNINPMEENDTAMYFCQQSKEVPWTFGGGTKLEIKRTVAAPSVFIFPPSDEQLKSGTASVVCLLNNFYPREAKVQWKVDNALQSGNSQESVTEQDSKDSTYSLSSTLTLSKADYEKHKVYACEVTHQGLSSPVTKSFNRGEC
notes: Expressed in 293 cells and purified on protein A; also called 18A10 H8L2
